Tests used:
[1] = target: retromer cargo selective complex VPS26/VPS29/VPS35 (UniProt Q96QK1); assay: ITC; TBC proteins (100∼200 μM) injected into retromer proteins (8–16 μM); 20 °C; 20 mM Tris pH 8, 200 mM NaCl, 5 mM βME; one set of sites model
[2] = target: AlexaFluor488-labelled Rab7-GMPPNP (aa 1–186-Cys and Cys143Ser) (UniProt P51149); assay: fluorescence polarisation; fluorescence anisotropy, direct binding: proteins titrated into 50 nM AlexaFluor488-labelled Rab7-GMPPNP; 20 °C; 20 mM Tris pH 8.0, 100 mM NaCl, 2 mM MgCl2, 5 mM βME; single-site 1:1 model
AlexaFluor488-labelled Rab7-GMPPNP (aa 1–186-Cys and Cys143Ser), sequence (P51149 other isoform, or with tags, fused parts or gaps C143S): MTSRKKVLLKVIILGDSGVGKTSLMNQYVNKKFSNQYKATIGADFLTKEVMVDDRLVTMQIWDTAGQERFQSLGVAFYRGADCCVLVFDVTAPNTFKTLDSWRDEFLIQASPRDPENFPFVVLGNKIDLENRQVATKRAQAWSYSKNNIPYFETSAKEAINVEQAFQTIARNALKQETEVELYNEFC

TBC1d5^TBC/CSC complex = TBC1d5^TBC/CSC complex (UniProt Q96QK1); assay: fluorescence polarisation; fluorescence anisotropy, competition: unlabelled Rab7-GMPPNP titrated into 8 μM TBC1d5/CSC and 50 nM labelled Rab7-GMPPNP; 20 °C; competitive binding one-site model

TBC1d5^TBC, sequence (Q92609 whole entry, the tested form may be a part): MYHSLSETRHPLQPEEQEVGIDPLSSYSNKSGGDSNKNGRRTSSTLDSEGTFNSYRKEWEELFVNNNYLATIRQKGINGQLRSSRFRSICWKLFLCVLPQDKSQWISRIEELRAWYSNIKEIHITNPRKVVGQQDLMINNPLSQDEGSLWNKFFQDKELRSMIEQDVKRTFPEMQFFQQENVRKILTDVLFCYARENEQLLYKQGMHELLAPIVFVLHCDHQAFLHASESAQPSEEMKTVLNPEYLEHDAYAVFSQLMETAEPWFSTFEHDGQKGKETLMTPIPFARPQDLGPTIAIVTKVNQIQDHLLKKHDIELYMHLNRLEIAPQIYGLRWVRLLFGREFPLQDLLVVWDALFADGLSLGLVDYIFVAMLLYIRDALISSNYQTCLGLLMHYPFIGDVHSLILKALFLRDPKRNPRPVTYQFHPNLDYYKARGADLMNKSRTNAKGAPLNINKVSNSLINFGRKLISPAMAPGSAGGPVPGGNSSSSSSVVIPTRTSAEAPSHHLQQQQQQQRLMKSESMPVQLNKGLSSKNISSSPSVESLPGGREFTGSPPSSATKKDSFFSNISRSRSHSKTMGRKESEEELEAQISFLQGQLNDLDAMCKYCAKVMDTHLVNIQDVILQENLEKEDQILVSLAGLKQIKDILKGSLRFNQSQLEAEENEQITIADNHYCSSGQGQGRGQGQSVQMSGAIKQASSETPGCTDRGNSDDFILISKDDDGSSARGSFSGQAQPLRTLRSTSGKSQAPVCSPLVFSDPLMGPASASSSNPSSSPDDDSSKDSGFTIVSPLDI

TBC1d5^TBC (from UniProt Q92609 1-795) (domain or fragment)
Kd [1]: 0.22 µM
stoichiometry N [1]: 1

TBC1d5^TBC/CSC complex (from UniProt Q96QK1 1-796; Q9UBQ0 1-182; O75436 1-327)
Kd [2]: 11.5 µM

unlabelled Rab7-GMPPNP (from UniProt P51149 1-86) (natural protein)
Kd (TBC1d5^TBC/CSC complex): 36 µM

From publication PMC5105194
